The record followed here is publication PMC10300128.

The assay concerns the target human angiotensin-converting enzyme 2 (residues 19–615), mouse IgG2a Fc fusion (human) (UniProt Q9BYF1). As to the kind of experiment: BLI. For orientation: Biolayer interferometry detects binding as a change in optical thickness at a sensor tip.

As a reminder, the Kd is the equilibrium constant for the complex coming apart. The low end stands for a tighter complex, the high end for a looser complex.

Sequence of UniProt Q9BYF1 (Q9BYF1 19-615): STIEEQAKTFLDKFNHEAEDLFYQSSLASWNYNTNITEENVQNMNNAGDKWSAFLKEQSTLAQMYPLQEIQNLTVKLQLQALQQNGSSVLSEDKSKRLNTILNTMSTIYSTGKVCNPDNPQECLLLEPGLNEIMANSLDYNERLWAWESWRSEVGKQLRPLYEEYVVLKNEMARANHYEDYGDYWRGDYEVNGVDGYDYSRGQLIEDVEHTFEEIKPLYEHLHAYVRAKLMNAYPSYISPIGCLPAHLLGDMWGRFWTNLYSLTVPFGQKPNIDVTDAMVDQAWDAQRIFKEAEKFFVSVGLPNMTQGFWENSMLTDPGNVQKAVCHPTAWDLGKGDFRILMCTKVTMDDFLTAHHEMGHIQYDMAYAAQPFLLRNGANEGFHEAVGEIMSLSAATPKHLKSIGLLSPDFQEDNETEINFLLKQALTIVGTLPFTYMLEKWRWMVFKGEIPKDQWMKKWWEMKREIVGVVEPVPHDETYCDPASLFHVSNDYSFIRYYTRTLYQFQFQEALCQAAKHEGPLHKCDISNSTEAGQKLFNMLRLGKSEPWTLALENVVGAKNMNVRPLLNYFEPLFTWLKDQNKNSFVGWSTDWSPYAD

As for RhGB07 spike trimer (natural protein), the Kd is 253 nM.
